Test results: IntAct's records for PubMed 11940652

B1: Serine/threonine-protein kinase STE20 (Saccharomyces cerevisiae), Q03497 (parent)
chain: MSNDPSAVSELPDKDSLDNGISNDNERAMGGNGDGGDGLRLPRTTGTLNVNALQKGTNAAHEAGGYKSMDPAKNAETTNDDDNNVVSLDDPIQFTRVSSSSVISGMSSSMSPHSNIDETKSLEAVTPNINTSNITPDHSADNTFSTINASESDHQFNDTLLSKLSLTDSTETIENNATVKHQQPVASSTVNSNKSSTDIRRATPVSTPVISKPSMTTTPRQINSASHSLSNPKHKQHKPKVKPSKPEAKSKPVSVKKSFPSKNPLKNSSPPKKQTEKSYYSSSSKKRKSGSNSGTLRMKDVFTSFVQNIKRNSQDDKRASSSSNNSSSSSITTALRISTPYNAKHIHHVGVDSKTGEYTGLPEEWEKLLTSSGISKREQQQNMQAVMDIVKFYQDVTETNGEDKMFKTFNTTTGLPGSPQVSTPPANSFNKFPPSTSDSHNYGSRTGTPMSNHVMSPTLNTDSSSANGKFIPSRPAPKPPSSASASAPIIKSPVMNSAANVSPLKQTHAPTTPNRTSPNRSSISRNATLKKEEQPLPPIPPTKSKTSPIISTAHTPQQVAQSPKAPAQETVTTPTSKPAQARSLSKELNEKKREERERRKKQLYAKLNEICSDGDPSTKYANLVKIGQGASGGVYTAYEIGTNVSVAIKQMNLEKQPKKELIINEILVMKGSKHPNIVNFIDSYVLKGDLWVIMEYMEGGSLTDVVTHCILTEGQIGAVCRETLSGLEFLHSKGVLHRDIKSDNILLSMEGDIKLTDFGFCAQINELNLKRTTMVGTPYWMAPEVVSRKEYGPKVDIWSLGIMIIEMIEGEPPYLNETPLRALYLIATNGTPKLKEPENLSSSLKKFLDWCLCVEPEDRASATELLHDEYITEIAEANSSLAPLVKLARLKKVAENMDADEDNDDDNDNEHINKTNNCDDNNDSKETVNLDVTEDDKQK

Variants of: B1
Conditions: with cdc42_yeast CDC42, P19073
Chain of cdc42_yeast CDC42, P19073 (P19073 whole entry): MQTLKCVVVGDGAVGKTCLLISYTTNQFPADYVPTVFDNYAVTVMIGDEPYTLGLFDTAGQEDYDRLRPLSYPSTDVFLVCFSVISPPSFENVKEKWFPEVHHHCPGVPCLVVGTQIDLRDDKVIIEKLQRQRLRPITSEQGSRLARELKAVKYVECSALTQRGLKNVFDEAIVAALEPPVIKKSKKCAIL

Variant	effect of a mutation on the interaction
S338A;H345G	decreasing interaction
